Experimental data reported in patent publication US20250271431A1 (NEW ERA MABS, published 2025).
Several values for one entry are separate records, joined by “and”; a condition that tells them apart may be missing. Identical values can stand only once. Like-named read-outs stand apart in the source and are kept apart here.

Tests used:
[1] = target: T1, SARS-CoV-2 Spike protein-RBD-mFc (Acrobiosystem; SPD-C5259) (SARS-CoV-2; mouse, UniProt P0DTC2 319-541)
[2] = target: epitope sequence SEQ ID No 21 ([…]) (SARS-CoV-2); assay: RepliTope peptide microarray, Cy5 fluorescence
Method: (§1) The peptide library consisted of 15-meric peptides representing overlapping peptide scans. […] Incubation took place for 1 hour at 30° C. Biotin-labeled secondary antibody (mouse-anti-camelid IgG) was added at 2 μg/mL and incubated for 1 hour. Detection was visualized using Cy5-labeled streptavidin at 0.1 μg/mL incubated for 1 hour. After washing and drying, the slides were scanned with a high-resolution laser scanner at 635 nm to obtain fluorescence intensity profiles. Resulting images were quantified to yield a mean pixel value for each peptide.

[3] = target: epitope sequence SEQ ID No 25 ([…]) (SARS-CoV-2); assay: RepliTope peptide microarray, Cy5 fluorescence
Method: as §1

[4] = target: epitope sequence SEQ ID No 27 ([…]) (SARS-CoV-2); assay: RepliTope peptide microarray, Cy5 fluorescence
Method: as §1

[5] = target: epitope sequence SEQ ID No 28 ([…]) (SARS-CoV-2); assay: RepliTope peptide microarray, Cy5 fluorescence
Method: as §1

[6] = target: epitope sequence SEQ ID No 29 ([…]) (SARS-CoV-2); assay: RepliTope peptide microarray, Cy5 fluorescence
Method: as §1

[7] = target: epitope sequence SEQ ID No 30 ([…]) (SARS-CoV-2); assay: RepliTope peptide microarray, Cy5 fluorescence
Method: as §1

[8] = target: epitope sequence SEQ ID No 36 ([…]) (SARS-CoV-2); assay: RepliTope peptide microarray, Cy5 fluorescence
Method: as §1

[9] = target: epitope sequence SEQ ID No 38 ([…]) (SARS-CoV-2); assay: RepliTope peptide microarray, Cy5 fluorescence
Method: as §1

[10] = target: epitope sequence SEQ ID No 39 ([…]) (SARS-CoV-2); assay: RepliTope peptide microarray, Cy5 fluorescence
Method: as §1

[11] = target: T1, SARS-CoV-2 Spike protein-RBD-mFc …; assay: SPR (Biacore T200), […], kinetic fit 1:1 binding, […]
[12] = target: T1, SARS-CoV-2 Spike protein-RBD-mFc …; assay: as above; remark: listed apart in the source

B1: hcAb B10 (clone B10), camelid full length IgG2 heavy chain only antibody (antibody, V domains shown)
VH: DVQLQESGGGLVQPGGSLRLSCAASGDINTIGTMNWFRQAPGKGREFVALITSGGTTNYADSVKGRFTVSRDNAKNTVYLQMNSLKPEDTAVYHCYGADHYSDYWGQGTQVTVSS
notes: also called mAb B10
Kd [1]: 0.39 nM | average signal intensity [2]: 48600 mean pixel value | average signal intensity [3]: 750 mean pixel value | average signal intensity [4]: 14000 mean pixel value | average signal intensity [5]: 14000 mean pixel value | average signal intensity [6]: 353 mean pixel value | average signal intensity [7]: 644 mean pixel value | average signal intensity [8]: 800 mean pixel value | average signal intensity [9]: 18100 mean pixel value | average signal intensity [10]: 15200 mean pixel value | Kd [11]: 0.372 nM and 0.385 nM | koff [11]: 0.000454 s⁻¹ and 0.000459 s⁻¹ | kon [11]: 1.22e+06 M⁻¹ s⁻¹ and 1.19e+06 M⁻¹ s⁻¹ | Kd [12]: 0.397 nM | koff [12]: 0.000463 s⁻¹ | kon [12]: 1.17e+06 M⁻¹ s⁻¹
